Measurements as given in US20040198705A1, “Modulation of steroid hormone uptake” (priority 2001, published 2004).
Read-outs that look alike come from different tables or passages of the source. Each block holds one molecule with its values, some of them ahead of it.

What was measured:
[1] = biological target: megalin expressed on Brown Norway yolk sac carcinoma cells (BN16 cells) (UniProt P98158); test: cell-based or functional assay
[2] = biological target: SHBG receptors in bovine epididymis membranes permeabilized in digitonin (bovine); test: radioligand filter binding to digitonin-permeabilized bovine epididymis membranes, competition with unlabelled rSHBG
[3] = biological target: SHBG receptors in bovine endometrium membranes permeabilized in digitonin (bovine); test: homologous competition, filter binding: 125I-rSHBG (400 pg) on 600 µg bovine endometrium membranes permeabilized in digitonin, with testosterone, 4 °C 18 h; unlabelled rSHBG varied, 125I-rSHBG as the displaced tracer
[4] = biological target: SHBG receptors in bovine epididymis membranes permeabilized in digitonin (bovine); test: homologous competition, filter binding: 125I-rSHBG (400 pg) on 600 µg bovine epididymis membranes permeabilized in digitonin, with testosterone, 4 °C 18 h; unlabelled rSHBG varied, 125I-rSHBG as the displaced tracer
purified native megalin = test: surface plasmon resonance, native megalin immobilised (51.4 fmol/mm^2), 1 µM testosterone/SHBG complexes in flow, blank chip subtracted
[5] = system: SHBG receptors in bovine endometrium membranes; test: 125I-rSHBG binding to permeabilized endometrium membranes; conditions: bovine endometrium membranes permeabilized in digitonin, competition with unlabelled rSHBG
Protocol: (§1) FIG. 8. 125I-rSHBG (400 pg) was incubated with 600 μg of membrane preparations from bovine epididymis (A) or endometrium (B) in the presence of the indicated concentrations of unlabelled rSHBG. Values are given as a percentage of 125I-rSHBG bound in the absence of competitor (100%). The data represent the means of four individual experiments (±S.E.M.). Where no error bar is shown, the values are smaller than the actual symbol.
(§2) To test whether recombinant SHBG (rSHBG) interacts with SHBG receptors and in particular whether rSHBG can act as an inhibitor of SHBG binding to an SHBG receptor, the binding of rSHBG to bovine epididymis and endometrium membranes permeabilized in digitonin was assayed. Binding was performed in the presence of testosterone, to achieve steroid hormone-steroid hormone binding protein complex formation.
(§3) Briefly, purified recombinant SHBG was labelled with ^125I using the Iodo-Gen™ method [specific radioactivity (13-15)×10^3 c.p.m./ng]. 400 pg of ^125I—SHBG was mixed with 600 μg of purified membranes (either bovine epididymis or bovine endometrium membranes permeabilized in digitonin) in a total volume of 200 μl of reaction buffer [10 mM Hepes, pH 7.4, 2 mM CaCl2, 1 mM MgCl2, 1% (w/v) BSA, 1 µM ZnCl2, […] testosterone and […] digitonin]. […] The filters were washed extensively with reaction buffer and the amount of bound radioactivity was determined.

[6] = system: SHBG receptors in bovine epididymis membranes; test: 125I-rSHBG binding to permeabilized epididymis membranes
Protocol: as §1, §2, §3

SHBG receptor = conditions: read-out: Kd of receptor binding, cited from earlier work

Sequence of UniProt P98158 (P98158 26-4660 limits assumed): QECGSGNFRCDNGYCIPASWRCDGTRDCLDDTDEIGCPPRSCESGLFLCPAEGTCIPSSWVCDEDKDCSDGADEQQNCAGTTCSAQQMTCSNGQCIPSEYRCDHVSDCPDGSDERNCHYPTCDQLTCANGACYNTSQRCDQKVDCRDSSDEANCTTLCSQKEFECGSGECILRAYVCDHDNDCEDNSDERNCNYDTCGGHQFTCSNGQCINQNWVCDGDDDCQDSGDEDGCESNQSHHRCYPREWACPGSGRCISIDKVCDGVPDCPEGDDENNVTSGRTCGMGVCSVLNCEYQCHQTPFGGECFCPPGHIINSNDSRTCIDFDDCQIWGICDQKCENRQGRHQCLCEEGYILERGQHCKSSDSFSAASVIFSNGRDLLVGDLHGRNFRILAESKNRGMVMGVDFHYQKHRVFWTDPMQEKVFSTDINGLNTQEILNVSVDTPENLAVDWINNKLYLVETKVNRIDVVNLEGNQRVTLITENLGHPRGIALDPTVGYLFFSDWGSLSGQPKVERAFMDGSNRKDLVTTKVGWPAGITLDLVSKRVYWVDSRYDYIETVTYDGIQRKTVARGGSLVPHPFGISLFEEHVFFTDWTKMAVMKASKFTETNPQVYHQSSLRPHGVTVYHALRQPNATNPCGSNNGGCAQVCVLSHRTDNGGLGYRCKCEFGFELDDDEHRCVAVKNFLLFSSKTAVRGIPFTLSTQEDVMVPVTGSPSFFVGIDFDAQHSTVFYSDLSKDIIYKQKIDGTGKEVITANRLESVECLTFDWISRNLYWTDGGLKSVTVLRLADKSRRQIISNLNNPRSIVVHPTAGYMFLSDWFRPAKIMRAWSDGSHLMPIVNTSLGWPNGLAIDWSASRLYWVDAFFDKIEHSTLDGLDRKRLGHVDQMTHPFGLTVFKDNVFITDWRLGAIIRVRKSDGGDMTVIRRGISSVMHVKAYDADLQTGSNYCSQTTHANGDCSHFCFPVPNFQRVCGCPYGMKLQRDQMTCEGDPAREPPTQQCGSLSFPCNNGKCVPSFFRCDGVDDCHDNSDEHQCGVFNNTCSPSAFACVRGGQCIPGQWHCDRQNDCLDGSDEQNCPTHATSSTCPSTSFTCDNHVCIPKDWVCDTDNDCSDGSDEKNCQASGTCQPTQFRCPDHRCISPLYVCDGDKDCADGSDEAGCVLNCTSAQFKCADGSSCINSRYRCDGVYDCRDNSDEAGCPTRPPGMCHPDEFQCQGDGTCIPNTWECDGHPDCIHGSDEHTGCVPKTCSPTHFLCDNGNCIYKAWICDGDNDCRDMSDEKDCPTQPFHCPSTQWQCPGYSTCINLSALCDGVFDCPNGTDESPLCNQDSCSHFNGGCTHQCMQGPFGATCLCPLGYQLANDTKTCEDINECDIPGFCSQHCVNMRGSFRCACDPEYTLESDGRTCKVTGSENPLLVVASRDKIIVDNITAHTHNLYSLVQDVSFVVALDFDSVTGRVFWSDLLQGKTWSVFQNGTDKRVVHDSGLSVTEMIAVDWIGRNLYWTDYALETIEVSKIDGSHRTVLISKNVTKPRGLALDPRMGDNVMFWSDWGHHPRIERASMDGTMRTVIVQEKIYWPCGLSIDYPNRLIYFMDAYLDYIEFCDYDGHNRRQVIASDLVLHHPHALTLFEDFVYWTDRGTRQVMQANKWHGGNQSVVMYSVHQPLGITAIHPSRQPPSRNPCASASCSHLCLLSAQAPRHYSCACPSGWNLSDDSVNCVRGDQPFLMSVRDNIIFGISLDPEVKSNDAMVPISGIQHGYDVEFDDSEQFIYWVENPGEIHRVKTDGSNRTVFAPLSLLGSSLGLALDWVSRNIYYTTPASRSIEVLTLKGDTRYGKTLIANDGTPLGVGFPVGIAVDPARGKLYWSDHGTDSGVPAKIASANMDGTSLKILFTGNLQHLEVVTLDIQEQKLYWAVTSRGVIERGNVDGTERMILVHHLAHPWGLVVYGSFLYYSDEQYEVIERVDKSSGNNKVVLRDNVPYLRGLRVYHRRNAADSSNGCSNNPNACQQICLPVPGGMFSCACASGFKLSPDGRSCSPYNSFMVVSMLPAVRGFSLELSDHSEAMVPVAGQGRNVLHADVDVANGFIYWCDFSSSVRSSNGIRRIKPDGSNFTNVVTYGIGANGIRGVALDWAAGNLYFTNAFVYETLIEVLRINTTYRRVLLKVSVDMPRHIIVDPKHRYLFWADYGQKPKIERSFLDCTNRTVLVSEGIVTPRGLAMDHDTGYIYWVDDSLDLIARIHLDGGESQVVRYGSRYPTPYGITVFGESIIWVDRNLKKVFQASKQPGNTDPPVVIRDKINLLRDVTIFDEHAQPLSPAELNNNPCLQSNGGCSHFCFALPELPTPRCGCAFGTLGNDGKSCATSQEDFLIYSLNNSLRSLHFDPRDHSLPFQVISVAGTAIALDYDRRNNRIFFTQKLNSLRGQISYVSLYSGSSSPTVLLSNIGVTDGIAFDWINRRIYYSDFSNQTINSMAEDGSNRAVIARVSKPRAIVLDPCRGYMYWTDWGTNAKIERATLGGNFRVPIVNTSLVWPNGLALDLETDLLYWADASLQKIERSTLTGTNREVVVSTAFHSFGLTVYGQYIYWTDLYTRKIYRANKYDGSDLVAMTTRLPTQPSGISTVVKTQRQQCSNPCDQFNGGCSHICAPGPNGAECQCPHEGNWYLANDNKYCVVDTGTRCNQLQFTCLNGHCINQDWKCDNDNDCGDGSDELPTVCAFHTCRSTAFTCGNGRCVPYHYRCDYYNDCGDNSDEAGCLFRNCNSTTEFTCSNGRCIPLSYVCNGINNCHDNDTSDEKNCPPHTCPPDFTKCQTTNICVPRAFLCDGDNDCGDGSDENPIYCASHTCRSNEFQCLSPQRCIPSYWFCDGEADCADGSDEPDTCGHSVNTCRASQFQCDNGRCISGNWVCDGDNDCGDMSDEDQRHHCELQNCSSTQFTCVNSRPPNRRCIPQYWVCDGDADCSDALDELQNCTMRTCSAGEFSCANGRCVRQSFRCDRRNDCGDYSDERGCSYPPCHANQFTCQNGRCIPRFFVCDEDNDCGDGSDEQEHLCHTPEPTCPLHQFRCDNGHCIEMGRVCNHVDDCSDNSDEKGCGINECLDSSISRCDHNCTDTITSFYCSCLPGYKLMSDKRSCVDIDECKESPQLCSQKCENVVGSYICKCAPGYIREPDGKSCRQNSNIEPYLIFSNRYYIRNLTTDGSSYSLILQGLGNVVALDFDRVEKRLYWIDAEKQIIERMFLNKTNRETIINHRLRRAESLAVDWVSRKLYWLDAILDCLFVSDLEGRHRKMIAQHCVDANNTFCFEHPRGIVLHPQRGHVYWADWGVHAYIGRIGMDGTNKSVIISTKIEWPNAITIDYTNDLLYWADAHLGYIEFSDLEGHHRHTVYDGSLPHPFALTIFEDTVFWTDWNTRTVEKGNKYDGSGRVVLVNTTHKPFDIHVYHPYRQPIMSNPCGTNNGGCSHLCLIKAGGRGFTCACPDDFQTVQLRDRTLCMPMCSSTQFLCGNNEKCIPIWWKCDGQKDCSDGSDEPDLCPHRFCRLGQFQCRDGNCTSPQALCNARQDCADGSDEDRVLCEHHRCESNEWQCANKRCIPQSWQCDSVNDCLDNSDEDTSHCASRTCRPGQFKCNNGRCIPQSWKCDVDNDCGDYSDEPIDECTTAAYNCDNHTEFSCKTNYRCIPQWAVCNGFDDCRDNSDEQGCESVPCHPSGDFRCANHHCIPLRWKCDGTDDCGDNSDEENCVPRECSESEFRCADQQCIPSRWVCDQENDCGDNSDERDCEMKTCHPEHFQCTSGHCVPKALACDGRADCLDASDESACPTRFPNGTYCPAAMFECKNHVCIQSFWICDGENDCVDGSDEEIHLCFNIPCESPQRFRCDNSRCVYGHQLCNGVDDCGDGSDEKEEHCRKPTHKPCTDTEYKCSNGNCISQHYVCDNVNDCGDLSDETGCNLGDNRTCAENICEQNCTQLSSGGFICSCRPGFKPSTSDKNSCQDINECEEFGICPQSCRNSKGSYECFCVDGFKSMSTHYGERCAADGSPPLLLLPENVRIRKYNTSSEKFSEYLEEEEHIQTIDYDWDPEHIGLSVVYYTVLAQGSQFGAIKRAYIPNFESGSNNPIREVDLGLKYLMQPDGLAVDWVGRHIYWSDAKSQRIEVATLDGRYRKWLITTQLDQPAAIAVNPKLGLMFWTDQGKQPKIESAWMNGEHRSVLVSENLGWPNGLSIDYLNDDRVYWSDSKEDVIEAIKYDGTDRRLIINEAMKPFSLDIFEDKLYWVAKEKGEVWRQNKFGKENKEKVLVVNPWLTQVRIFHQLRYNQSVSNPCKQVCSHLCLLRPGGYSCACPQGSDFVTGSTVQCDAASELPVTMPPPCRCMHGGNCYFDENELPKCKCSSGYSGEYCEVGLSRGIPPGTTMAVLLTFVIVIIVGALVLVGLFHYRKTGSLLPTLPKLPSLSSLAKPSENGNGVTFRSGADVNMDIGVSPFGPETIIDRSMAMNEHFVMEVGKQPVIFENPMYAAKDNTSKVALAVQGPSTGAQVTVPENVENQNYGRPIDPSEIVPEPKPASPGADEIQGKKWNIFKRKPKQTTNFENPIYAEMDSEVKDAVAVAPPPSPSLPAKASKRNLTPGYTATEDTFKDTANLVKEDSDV

- Kd [2]: 500 nM
- IC50 (read off the curve) [3]: 3000 nM
- IC50 (read off the curve) [4]: 1000 nM
Molecule: recombinant SHBG (rSHBG), 125I-labelled, in the presence of testosterone (from UniProt P04278 30-402) (ligand)

- Kd (purified native megalin): 140 nM
Molecule: testosterone/SHBG complex (sex hormone binding globulin with bound testosterone) (from UniProt P04278 30-402) (ligand)

Second part, the molecule before the results:

Molecule: complexes of [3H]-dihydrotestosterone (DHT) and sex hormone binding globulin (SHBG) (ligand)
- cell-associated [3H]-DHT after 4 hours at 37° C. in the presence of GST (control) [1]: 300000 cpm

Molecule: fusion protein of GST and the receptor-associated protein (GST-RAP)
- cell-associated [3H]-DHT after 4 hours at 37° C. in the presence of GST-RAP [1]: 70000 cpm
- reduction in [3H]-DHT uptake in the presence of GST-RAP [1]: 75%

B1: rSHBG: recombinant SHBG, 125I-labelled, tested for binding to SHBG receptors (protein, UniProt P04278 30-402, looked up)
Sex hormone-binding globulin: LRPVLPTQSAHDPPAVHLSNGPGQEPIAVMTFDLTKITKTSSSFEVRTWDPEGVIFYGDTNPKDDWFMLGLRDGRPEIQLHNHWAQLTVGAGPRLDDGRWHQVEVKMEGDSVLLEVDGEEVLRLRQVSGPLTSKRHPIMRIALGGLLFPASNLRLPLVPALDGCLRRDSWLDKQAEISASAPTSLRSCDVESNPGIFLPPGTQAEFNLRDIPQPHAEPWAFSLDLGLKQAAGSGHLLALGTPENPSWLSLHLQDQKVVLSSGSGPGLDLPLVLGLPLQLKLSMSRVVLSQGSKMKALALPPLGLAPLLNLWAKPQGRLFLGALPGEDSSTSFCLNGLWAQGQRLDVDQALNRSHEIWTHSCPQSPGNGTDASH
modifications: 125I-labelled
- binding of 125I-labelled rSHBG (in words) [5]: saturable binding
- binding of 125I-labelled rSHBG (in words) ([6]; bovine epididymis membranes permeabilized in digitonin, competition with unlabelled rSHBG): saturable binding
- Kd ([6]; permeabilized bovine epididymis membranes, in the presence of testosterone, read-out: affinity of binding (Kd)): 500 nM

B2: SHBG: native sex hormone-binding globulin, plasma carrier of androgens and estrogens (protein, listed as Homo sapiens)
chain: MESRGPLATSRLLLLLLLLLLRHTRQGWALRPVLPTQSAHDPPAVHLSNGPGQEPIAVMTFDLTKITKTSSSFEVRTWDPEGVIFYGDTNPKDDWFMLGLRDGRPEIQLHNHWAQLTVGAGPRLDDGRWHQVEVKMEGDSVLLEVDGEEVLRLRQVSGPLTSKRHPIMRIALGGLLFPASNLRLPLVPALDGCLRRDSWLDKQAEISASAPTSLRSCDVESNPGIFLPPGTQAEFNLRDIPQPHAEPWAFSLDLGLKQAAGSGHLLALGTPENPSWLSLHLQDQKVVLSSGSGPGLDLPLVLGLPLQLKLSMSRVVLSQGSKMKALALPPLGLAPLLNLWAKPQGRLFLGALPGEDSSTSFCLNGLWAQGQRLDVDQALNRSHEIWTHSCPQSPGNGTDASH
- Kd (SHBG receptor; membrane suspensions): 50 nM
- Kd (SHBG receptor; solubilized membranes): 500 nM
